B1: M0063-F02 IgG (antibody, V domains shown)
VH: EVQLLESGGGLVQPGGSLRLSCAASGFTFSKYEMDWVRQAPGKGLEWVSVISSSGGGTIYADSVKGRFTISRDNSKNTLYLQMNSLRAEDTAMYYCARGRTLYGGAFDIWGQGTMVTVSS
VL: DIQMTQSPSSLSASVGDRVTITCRASQPINTYLNWYQQRPGKAPRILIYTSSTLQSGVPSRFSGSGSGTDFTLTISSVQPEDFATYYCQQSYSFPLTFGGGTKVEIK
notes: IgG form of the Fab; Variable domains as printed for the Fab (LV with its leading Q)
B2: M0063-F02 Fab (Fab, V domains shown)
VH: B1 VH
VL: DIQMTQSPSSLSASVGDRVTITCRASQPINTYLNWYQQRPGKAPRILIYTSSTLQSGVPSRFSGSGSGTDFTLTISSVQPEDFATYYCQQSYSFPLTFGGGTKVEIKR
notes: Soluble Fab from phage display; also called M0063-F02(R0032-A01)
B3: M0064-E04 Fab (Fab, V domains shown)
VH: EVQLLESGGGLVQPGGSLRLSCAASGFTFSVYDMNWVRQAPGKGLEWVSSISSSGGGTLYADSVKGRFTISRDNSKNTLYLQMNSLRAEDTAVYYCARDSDTSSYYWYYDLWGRGTLVTVSS
VL: DIQMTQSPSSLSASVGDRVTITCQASHDISNYLNWYQQKPGKAPKLLIYAASRLQSGVPSRFSGGGSGTDFSLTISSLQAEDFATYYCQQSYSFPRTFGQGTNLEIKR
notes: Soluble Fab from phage display; also called M0064-E04(R0032-A03); 566A-M0064-E04
B4: M0064-F02 Fab (Fab, V domains shown)
VH: EVQLLESGGGLVQPGGSLRLSCAASGFTFSNYIMWWVRQAPGKGLEWVSVISSSGGMTRYADSVKGRFTISRDNSKNTLYLQMNSLRAEDTAVYYCARDNGDYVGEKGFDIWGQGTMVTVSS
VL: DIQMTQSPSSLSASVGDRVTITCRASQSISNYLNWYQQKPGKAPKLLIYTASTLQSGVPSRFSGSASGTDFTLTINSLQPEDFATYSCQQSYNSPWTFGQGTKVEIKR
notes: Soluble Fab from phage display; also called M0064-F02(R0032-A11); 566A-M0064-F02
B5: M0072-E03 Fab (Fab, V domains shown)
VH: EVQLLESGGGLVQPGGSLRLSCAASGFTFSEYEMSWVRQAPGKGLEWVSSIYSSGGWTKYTDSVKGRFTISRDNSKNTLYLQMNSLRAEDTAVYYCAKGVHYDSSGLPIDWYFDLWGRGTLVTVSS
VL: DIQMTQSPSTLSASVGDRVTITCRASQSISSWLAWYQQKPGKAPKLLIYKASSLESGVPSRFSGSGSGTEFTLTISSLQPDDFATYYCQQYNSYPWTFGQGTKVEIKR
notes: Soluble Fab from phage display; also called M0072-E03(R0032-C03)
B6: M0072-C06 Fab (Fab, V domains shown)
VH: EVQLLESGGGLVQPGGSLRLSCAASGFTFSAYIMTWVRQAPGKGLEWVSSISPSGGYTVYADSVKGRFTISRDNSKNTLYLQMNSLRAEDTAVYYCARDSGFGDPFDYWGQGTMVTVSS
VL: DIQMTQSPSSLSASVGDRVTITCRASQSIRNYLNWYQQKPGKAPKLLIYAASKLEDGVPSRFSGSGTGTDFTLTIRSLQPEDFASYFCQQSYSSPGITFGPGTKVEIKR
notes: Soluble Fab from phage display; Often printed as M0072-006; also called M0072-006; M0072-C06(R0032-A09)
B7: M0072-G06 Fab (Fab, V domains shown)
VH: EVQLLESGGGLVQPGGSLRLSCAASGFTFSEYVMWWVRQAPGKGLEWVSVISPSGGYTVYADSVKGRFTISRDNSKNTLYLQMNSLRAEDTAVYYCARDRGGATTLDYWGQGTLVTVSS
VL: DIQMTQSPSTLSASVGDRVTITCRASQTISSWLAWYQQKPGKAPKLMIYKAASLGSEVPSRFSGSGSGTEFTLTISSLQPEDFSTYYCQQYKTYPVTFGQGTRLEIKR
notes: Soluble Fab from phage display; also called M0072-G06(R0032-C05)
B8: M0064-F02 IgG (antibody, V domains shown)
VH: B4 VH
VL: DIQMTQSPSSLSASVGDRVTITCRASQSISNYLNWYQQKPGKAPKLLIYTASTLQSGVPSRFSGSASGTDFTLTINSLQPEDFATYSCQQSYNSPWTFGQGTKVEIK
notes: IgG form of the Fab; also called non-germlined M0064-F02
B9: M0070-H08 Fab (Fab, V domains shown)
VH: EVQLLESGGGLVQPGGSLRLSCAASGFTFSRYWMIWVRQAPGKGLEWVSSIRSSGETKYADSVKGRFTISRDNSKNTLYLQMNSLRAEDTAVYYCARGPLSDYYDSSGYYFDAFDIWGQGTMVTVSS
VL: DIQMTQSPSSLSASAGDRVTITCRASQSISSYLNWYQQKPGKAPNLLIYTTSNLQGGVPSRFSGSGSGTDFTLTISSLQPEDFATYYCQQGYSFPLTFGGGTKVEIKR
notes: Soluble Fab from phage display; also called M0070-H08(R0032-A07)
B10: M0073-C11 Fab (Fab, V domains shown)
VH: EVQLLESGGGLVQPGGSLRLSCAASGFTFSPYDMWWVRQAPGKGLEWVSSISSSGGITAYADSVKGRFTISRDNSKNTLYLQMNSLRAEDTAVYYCARAGYSSSWGYYYYGMDVWGQGTTVTVSS
VL: QSALTQPPSVSVSPGQTASITCSGDRLGDKYASWYQQKPGQSPVLVIYQDTKRPSGIPERFSGSNSGSTATLTISGTQAMDEADYYCQAWDSSTVVFGGGTKLTVL
notes: Anti-IGF-IIE Fab; the constant regions are printed only in part; also called 566A-M0073-C11; 566A-X0003-B02
B11: M0080-G03 Fab (Fab, V domains shown)
VH: EVQLLESGGGLVQPGGSLRLSCAASGFTFSFYQMMWVRQAPGKGLEWVSSISPSGGRTYYADSVKGRFTISRDNSKNTLYLQMNSLRAEDTAVYYCAKDIGLGYCSSTSCYTGTPLDYWGQGTLVTVSS
VL: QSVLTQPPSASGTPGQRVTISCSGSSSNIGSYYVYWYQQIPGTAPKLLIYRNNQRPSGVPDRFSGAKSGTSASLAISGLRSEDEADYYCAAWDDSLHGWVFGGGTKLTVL
notes: Anti-IGF-IIE Fab; the constant regions are printed only in part; also called 566A-M0080-G03; 566A-X0004-A02
B12: M0072-E03 IgG (antibody, V domains shown)
VH: B5 VH
VL: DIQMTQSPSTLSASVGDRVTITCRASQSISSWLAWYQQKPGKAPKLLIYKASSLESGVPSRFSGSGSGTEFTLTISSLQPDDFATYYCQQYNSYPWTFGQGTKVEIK
B13: M0072-C06 IgG (antibody, V domains shown)
VH: B6 VH
VL: DIQMTQSPSSLSASVGDRVTITCRASQSIRNYLNWYQQKPGKAPKLLIYAASKLEDGVPSRFSGSGTGTDFTLTIRSLQPEDFASYFCQQSYSSPGITFGPGTKVEIK
B14: M0072-G06 IgG (antibody, V domains shown)
VH: B7 VH
VL: DIQMTQSPSTLSASVGDRVTITCRASQTISSWLAWYQQKPGKAPKLMIYKAASLGSEVPSRFSGSGSGTEFTLTISSLQPEDFSTYYCQQYKTYPVTFGQGTRLEIK
B15: M0070-H08 IgG (antibody, V domains shown)
VH: B9 VH
VL: DIQMTQSPSSLSASAGDRVTITCRASQSISSYLNWYQQKPGKAPNLLIYTTSNLQGGVPSRFSGSGSGTDFTLTISSLQPEDFATYYCQQGYSFPLTFGGGTKVEIK

Biological target: T1, IGF-II (amino acids 1-67) (human, UniProt P01344 25-91)
Experiment: cell-based or functional assay

T1 sequence (P01344 25-91): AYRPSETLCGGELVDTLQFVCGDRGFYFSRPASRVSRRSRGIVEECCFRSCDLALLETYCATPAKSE

Binder | IC50, IGF-II stimulated BaF3 cell proliferation (Guava ViaCount) | IC50, IGF-II stimulated BaF3 cell proliferation (Guava ViaCount), second study
B1 | 2 nM | ~7 nM

Biological target: IGF-I (UniProt P05019 49-118)
Experiment: cell-based or functional assay

Chain of IGF-I (P05019 49-118 limits assumed): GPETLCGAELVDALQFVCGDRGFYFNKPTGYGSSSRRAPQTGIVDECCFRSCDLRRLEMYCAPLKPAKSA

Binder | decrease in IGF-I stimulated cell proliferation, sFab at 50 µg/ml
B2 | ~30%
B3 | ~30%
B4 | ~30%
B5 | ~30%
B6 | ~30%

Biological target: T1, IGF-II (amino acids 1-67)
Experiment: cell-based or functional assay
Remark: another data set of the same source

Binder | IC50, IGF-II stimulated BA/F3 cell proliferation (MTS)
B2 | 5.56 µg/mL
B3 | 3.04 µg/mL
B4 | 0.68 µg/mL
B6 | 5.12 µg/mL
B7 | 8.7 µg/mL

Biological target: T1, IGF-II (amino acids 1-67)
Experiment: SPR (Biacore), non-germlined IgG

Binder | Kd
B8 | 0.14 nM

Biological target: T1, IGF-II (amino acids 1-67)
Experiment: SPR (Flexchip), Fab, first of duplicate; unit inferred

Binder | Kd
B2 | 0.77 nM
B3 | 0.12 nM
B4 | 0.45 nM
B5 | 0.75 nM
B6 | 5.2 nM
B7 | 0.58 nM
B9 | 3.3 nM

Biological target: T1, IGF-II (amino acids 1-67)
Experiment: SPR (Flexchip), Fab, second of duplicate; unit inferred

Binder | Kd
B2 | 1.6 nM
B3 | 0.25 nM
B4 | 1.2 nM
B5 | 0.3 nM
B6 | 0.7 nM
B7 | 1.4 nM
B9 | 1.1 nM

Biological target: T1, IGF-II (amino acids 1-67)
Experiment: competition SPR (Biacore T100) on immobilized huIR-A ECD, measurement #1
Experimental: (§1) Competition SPR (BIACORE®) was performed under conditions of partially mass-transport limited conditions according to previously described methodology (Nieba et al., 1996). Approximately 16,700 relative response units (RU) of huIR-A (-exon11) ectodomain was coupled by standard amine chemistry to a BIACORE® CM5 chip sensor. Uncoated flow-cell surface was used as a reference. […] Regeneration of the surface was achieved by injection of 30 ul NaCltrate/NaCl pH 4.5. […] These Req estimates were subsequently plotted against total concentrations of Fab used and the resulting inhibition curve was utilised to calculate dissociation constant (KD).

Binder | binding result
B10 | no binding
B11 | no binding

Biological target: T1, IGF-II (amino acids 1-67)
Experiment: SPR (Biacore T100): IgG captured on Protein G', ligand bound, then BP injected; competitor BP2
Experimental: (§2) BIACORE® T100 and a CM5 chip coated with Protein G were utilised to set up following assay. Approximately 1000 RU of Protein G′ was immobilized on a CM5 chip using standard amine chemistry immobilization method. Entire assay consisted of three sequential injection of following four reagents 1) Candidate IgG was injected onto Protein G′ at 10 ug/ml at 5 ul/min for 180 sec.

Binder | competition score (0 = does not compete significantly, 5 = competes strongly)
B1 | 1 score 0-5
B8 | 4 score 0-5
B12 | 4 score 0-5
B13 | 3 score 0-5
B14 | 2 score 0-5
B15 | 3 score 0-5

Biological target: T1, IGF-II (amino acids 1-67)
Experiment: SPR (Biacore T100): IgG captured on Protein G', ligand bound, then BP injected; competitor BP4
Experimental: as §2

Binder | competition score (0 = does not compete significantly, 5 = competes strongly)
B1 | 0 score 0-5
B8 | 4 score 0-5
B12 | 4 score 0-5
B13 | 2 score 0-5
B14 | 1 score 0-5
B15 | 2 score 0-5

Biological target: T1, IGF-II (amino acids 1-67)
Experiment: competition SPR (Biacore T100), affinity in solution: Fab pre-incubated with ligand, free ligand read on immobilized huIR-A ECD; measurement #1; head prints 'KD nM'
Experimental: as §1

Binder | Kd
B2 | 1.17 nM
B3 | 0.608 nM
B4 | 1.03 nM
B5 | 2.62 nM
B6 | 1.64 nM
B7 | 3.99 nM
B9 | 3.24 nM

Biological target: T1, IGF-II (amino acids 1-67)
Experiment: competition SPR (Biacore T100), affinity in solution: Fab pre-incubated with ligand, free ligand read on immobilized huIR-A ECD; measurement #2; head prints 'KD nM'
Experimental: as §1

Binder | Kd
B2 | 0.858 nM
B3 | 1.11 nM
B4 | 0.503 nM
B6 | 2.52 nM

Reference: US20110262446A1 (published 2011)
